Test results from the supplement of paper PMC10567573.

B1: KLHL14 (parent)
chain: WLYCYDPVMDVWARKQDMNTKRAI

Variants of: B1
Assay: protein stability index of a GFP-peptide fusion (GPS, HEK-293T) (PSI 1-6); higher = more stable
Settings: c terminus: a fixed tail appended
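Further: lentivirally expressed fusions sorted by FACS into six bins by GFP to DsRed ratio, PSI derived from sequencing read proportions per bin multiplied by bin number.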

Variant | protein stability index
WLYCYDPVMDVWARKQDMNTKLAI [R22L] | 1.83
WLYCYDPVMDVWARKQDMNTKVAI [R22V] | 1.72
WLYCYDPVMDVWARKQDMNTKPAI [R22P] | 1.8
WLYCYDPVMDVWARKQDMNTKDAI [R22D] | 2.13
WLYCYDPVMDVWARKQDMNTKWAI [R22W] | 1.69
WLYCYDPVMDVWARKQDMNTKHAI [R22H] | 2.01
WLYCYDPVMDVWARKQDMNTKMAI [R22M] | 1.88
WLYCYDPVMDVWARKQDMNTKSAI [R22S] | 2.12
WLYCYDPVMDVWARKQDMNTKNAI [R22N] | 1.82
WLYCYDPVMDVWARKQDMNTKCAI [R22C] | 2.15
WLYCYDPVMDVWARKQDMNTKYAI [R22Y] | 2.01
WLYCYDPVMDVWARKQDMNTKTAI [R22T] | 1.91
WLYCYDPVMDVWARKQDMNTKEAI [R22E] | 2.19
WLYCYDPVMDVWARKQDMNTKQAI [R22Q] | 1.77
WLYCYDPVMDVWARKQDMNTKFAI [R22F] | 1.51
WLYCYDPVMDVWARKQDMNTKAAI [R22A] | 2.32
WLYCYDPVMDVWARKQDMNTKGAI [R22G] | 1.69
WLYCYDPVMDVWARKQDMNTKIAI [R22I] | 1.74
WLYCYDPVMDVWARKQDMNTKKAI [R22K] | 2
WLYCYDPVMDVWARKSDMNTKRAI [Q16S] | 1.94
WLYCYDPVMDVWARKTDMNTKRAI [Q16T] | 1.83
WLYCYDPVMDVWARKNDMNTKRAI [Q16N] | 2.16
WLYCYDPVMDVWARKWDMNTKRAI [Q16W] | 2.7
WLYCYDPVMDVWARKVDMNTKRAI [Q16V] | 2.29

Variant | protein stability index
WLYCYDPVMDVWARKYDMNTKRAI [Q16Y] | 1.69
WLYCYDPVMDVWARKLDMNTKRAI [Q16L] | 1.72
WLYCYDPVMDVWARKPDMNTKRAI [Q16P] | 1.85
WLYCYDPVMDVWARKRDMNTKRAI [Q16R] | 1.95
WLYCYDPVMDVWARKMDMNTKRAI [Q16M] | 2.5
WLYCYDPVMDVWARKQDMVTKRAI [N19V] | 2.55
WLYCYDPVMDVWARKQDMSTKRAI [N19S] | 1.83
WLYCYDPVMDVWARKQDMRTKRAI [N19R] | 1.83
WLYCYDPVMDVWARKQDMGTKRAI [N19G] | 2
WLYCYDPVMDVWARKQDMHTKRAI [N19H] | 1.57
WLYCYDPVMDVWARKQDMITKRAI [N19I] | 1.57
WLYCYDPVMDVWARKQDMYTKRAI [N19Y] | 1.72
WLYCYDPVMDVWARKQDMLTKRAI [N19L] | 2.05
WLYCYDPVMDVWARKQDMATKRAI [N19A] | 1.59
WLYCYDPVMDVWARKQDMWTKRAI [N19W] | 2.53
WLYCYDPVMDVWARKQDMTTKRAI [N19T] | 1.88
WLYCYDPVMDVWARKQDMQTKRAI [N19Q] | 2.2
WLYCYDPVMDVWARKQDMDTKRAI [N19D] | 2.27
WLYCYDPVMDVWARKQDMKTKRAI [N19K] | 2.02
WLYCYDPVMDVWARKQDMETKRAI [N19E] | 1.81
WLYCYDPVMDVWARKQDMPTKRAI [N19P] | 1.93
WLYCYDPVMDVWARKQDMCTKRAI [N19C] | 1.76
WLYCYDPVMDVWARKQDMMTKRAI [N19M] | 2.13
WLYCYDPVMDVWARKQDMFTKRAI [N19F] | 1.52

Variant | protein stability index
WLYCYDPVMDVWARKQDMNTKRYI [A23Y] | 1.92
WLYCYDPVMDVWARKQDMNTKRSI [A23S] | 1.97
WLYCYDPVMDVWARKQDMNTKRVI [A23V] | 1.63
WLYCYDPVMDVWARKQDMNTKRLI [A23L] | 1.6
WLYCYDPVMDVWARKQDMNTKRHI [A23H] | 2.02
WLYCYDPVMDVWARKQDMNTKREI [A23E] | 2.33
WLYCYDPVMDVWARKQDMNTKRDI [A23D] | 2.22
WLYCYDPVMDVWARKQDMNTKRNI [A23N] | 1.7
WLYCYDPVMDVWARKQDMNTKRTI [A23T] | 1.76
WLYCYDPVMDVWARKQDMNTKRMI [A23M] | 2.22
WLYCYDPVMDVWARKQDMNTKRKI [A23K] | 1.97
WLYCYDPVMDVWARKQDMNTKRFI [A23F] | 2.24
WLYCYDPVMDVWARKQDMNTKRWI [A23W] | 1.37
WLYCYDPVMDVWARKQDMNTKRII [A23I] | 1.57
WLYCYDPVMDVWARKQDMNTKRRI [A23R] | 2.62
WLYCYDPVMDVWARKQDMNTKRGI [A23G] | 1.51
WLYCYDPVMDVWARKQDMNTKRQI [A23Q] | 2.11
WLYCYDPVMDVWARKQDMNTKRPI [A23P] | 1.58
WLYCYDPVMDVWARKQDMNTKRCI [A23C] | 1.78
WLYCYDPVMDVWARKQGMNTKRAI [D17G] | 1.97
WLYCYDPVMDVWARKQCMNTKRAI [D17C] | 1.74
WLYCYDPVMDVWARKQAMNTKRAI [D17A] | 2.33
WLYCYDPVMDVWARKQFMNTKRAI [D17F] | 2.24
WLYCYDPVMDVWARKQWMNTKRAI [D17W] | 2.58

Variant | protein stability index
WLYCYDPVMDVWARKQNMNTKRAI [D17N] | 1.91
WLYCYDPVMDVWARKQTMNTKRAI [D17T] | 1.78
WLYCYDPVMDVWARKQMMNTKRAI [D17M] | 2.2
WLYCYDPVMDVWARKQYMNTKRAI [D17Y] | 1.67
WLYCYDPVMDVWARKQVMNTKRAI [D17V] | 2.06
WLYCYDPVMDVWARKQEMNTKRAI [D17E] | 1.8
WLYCYDPVMDVWARKQPMNTKRAI [D17P] | 2.16
WLYCYDPVMDVWARKQQMNTKRAI [D17Q] | 2.06
WLYCYDPVMDVWARKQKMNTKRAI [D17K] | 1.65
WLYCYDPVMDVWARKQHMNTKRAI [D17H] | 2.21
WLYCYDPVMDVWARKQSMNTKRAI [D17S] | 2.38
WLYCYDPVMDVWARKQIMNTKRAI [D17I] | 1.94
WLYCYDPVMDVWARKQRMNTKRAI [D17R] | 2.34
WLYCYDPVMDVWARKQLMNTKRAI [D17L] | 2.48
WLYCYDPVMDVWARKQDMNTTRAI [K21T] | 1.83
WLYCYDPVMDVWARKQDMNTERAI [K21E] | 1.91
WLYCYDPVMDVWARKQDMNTNRAI [K21N] | 1.81
WLYCYDPVMDVWARKQDMNTRRAI [K21R] | 1.83
WLYCYDPVMDVWARKQDMNTSRAI [K21S] | 1.91
WLYCYDPVMDVWARKQDMNTYRAI [K21Y] | 1.92
WLYCYDPVMDVWARKQDMNTHRAI [K21H] | 1.94
WLYCYDPVMDVWARKQDMNTFRAI [K21F] | 1.86
